B1: TPR t1 (parent)
chain: GACCAAUCUGCCCUCAGAGCUCGAGAACAUCUUCGGAUGCAGAGGAGGCAGGCUUCGGUGGCGCGAUAGCGCCAACGUCCUCAACCUCCAAUGCAUCCCACCACAUGAUGAUGCCUGAAGAGCCUUGGUUUUUUG

Variants of: B1
Assay: polymerase ribozyme fitness, log enrichment relative to wild type (log ratio); higher = more active; in vitro selection for triplet polymerase activity
In short: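 To select mutant libraries of each subunit of a heterodimeric triplet polymerase ribozyme, built by PCR and transcribed, each was annealed with a biotinylated primer, partner subunit and triplets, then incubated frozen at −7 °C. Extended constructs were gel-excised, captured on streptavidin beads and amplified by RT-PCR, in one round carried out in triplicate. Illumina sequencing of input and output libraries kept genotypes with ≥10 input reads and ≥1 read per output. Fitness is the base-2 logarithm of genotype enrichment relative to wild-type enrichment, from inverse-variance-weighted replicate averages.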

Row | Variant | polymerase ribozyme fitness (log ratio)
1 | C12U A74U C80A C97U A121G U133A | -0.836
2 | A24U U116C G128U | -6.51
3 | A2C A105C | -4.23
4 | C56U G61C | -6.29
5 | A18C G117C | -4.33
6 | C72U C76U | 0.954
7 | G47A C70A C101U | -1.81
8 | U92G C104G | -7.29
9 | G113A G128A | -2.92
10 | A6C G71A G93C C99U C123A U130A | -7.12
11 | C12U C56A G69A U129A | -5.35
12 | U30G A43C C101A U106C C115U U132A | -7.22
13 | G57A G69A C76G | -3.53
14 | U106G C114G | -3.54
15 | C97A U112C | -2.11
16 | C11U A100C | -1.31
17 | C20U U112C | 0.258
18 | G19U A46C | -3.44
19 | C40G G51A C56A C72A A121U | -3.83
20 | G60U A91U A121U | 0.38
21 | C62A G93U C101G | -5.19
22 | A43G G48U C114U | -2.07
23 | C62U C97A | -5.14
24 | U14G A37U C70U A74U U133G | -3.41

Row | Variant | polymerase ribozyme fitness (log ratio)
25 | A29U C56U C73U | -1.33
26 | G10A C11G C70G | -2.13
27 | C73A C104U | 0.181
28 | C34A U133A | -2.19
29 | G10C C89A | -2.73
30 | C88G U106G | -2.4
31 | G61C | -1.63
32 | C34G G39A C56A G69U C79A A103U C104G G110A C115G | -7.05
33 | A5U G44A C56A C124A G128U U132G U133C | -2.5
34 | A6U C8A G71C C115A U116A A121G U131A | -2.72
35 | G23U U112G C114U C124G U125C | -7.12
36 | G39U C86U | -1.64
37 | C82A C102U | -1.82
38 | A29U U38G G45U G120A U129A | -4.85
39 | C64U C82U U109A G120U | -6.78
40 | C34U G44C U87A C89G C115A | -4.92
41 | C8A C40A A43C U87G | -2.23
42 | G10U C56A | 0.154
43 | A6C U78A | 0.00944
44 | C82G C85A A111G G113U U130G | -4.27
45 | G61C C98U C123G U133A G135U | -1.22
46 | C8A C123A C124U G127U | 0.694
47 | C73A C97U | -0.11
48 | U38G U78G | -0.583

Row | Variant | polymerase ribozyme fitness (log ratio)
49 | A6G C12A A50G G120A | 2.01
50 | U59A U87A | -0.298
51 | C12U C20G A43C G48A C62U | -6.08
52 | G44A C56U C72U G120C U129C | -2.55
53 | A5U A41U G69U | 0.0184
54 | U9A G47U C97G C99U G120U U130C | -5.08
55 | G60A U116G | -2.22
56 | C11U C12G C15U C28G U38A C56U G69C G120A | -7.02
57 | C8U G44A U109A | -5.08
58 | A16U C34A U109G C123A U129G | -5.83
59 | C53U U59A A84U U126C | -2.21
60 | C11U U32G U38G U54C C99G G120C | -6.93
61 | G45A A46C C49U C101A U112G U131A | -5.02
62 | C15A G47U | -4.02
63 | A18U U21C G36A C114U | -3.69
64 | C62U U125G G127C | -1.39
65 | G117A G120A | -2.42
66 | A91G G117U | -3.4
67 | A18U C89A U133A | -2.21
68 | G36C G57C G61A U106C G113U | -3.7
69 | C12U G117C | -1.68
70 | C4G A111C | -0.384
71 | C98U U112A | -1.61
72 | C15U C88U A118G | -1.82

Row | Variant | polymerase ribozyme fitness (log ratio)
73 | C20A U112C | -1.35
74 | C11A G69U C79U C102U | -1.74
75 | U96G G113U | -3.21
76 | C49A C56U G110C | -5.23
77 | A43U C99A C101G G110A | -7.09
78 | C12A C86G C123A | 0.105
79 | G48C G135U | -1.05
80 | C20U A37G C102A | -3.43
81 | C11U G19A C49U C56U U59C C114U | -2.93
82 | A2U G42A A83U C88U | -5.05
83 | C115U C124G | 0.35
84 | G44U G93U G117A | -3.24
85 | U7A C13G U32C U38G | -1.31
86 | G69U C72A | -2.5
87 | C56A G71U G122A | -2.05
88 | C11G C40A | -1.54
89 | C56U U78C U87A | 0.212
90 | C13G G19C G61U C88U | -4.01
91 | C15A G42A G71U G117C | -5.93
92 | C8U C62U | 0.699
93 | G23A C31U G122U C124G | -7.15
94 | G39U G60A U78C G127U | -2.06
95 | G45U G61U G63C A91C A95G G110C | -4.25
96 | C3A C13A C20A A66G G117A | -5.73

Row | Variant | polymerase ribozyme fitness (log ratio)
97 | A100C C101G C104A C124A | -3.18
98 | G51A G60A C124G | -1.16
99 | C76A G113C | -3.53
100 | C15A U78C | -2.38
101 | A16U U59G G69A U96C | -4.5
102 | C13A G63A G77U U106A C114A | -6.33
103 | C40U G48U A50C G51A | -3.99
104 | C73G U116A | -3.66
105 | C40U C62U | -0.882
106 | A43G G61U C94G A103U C114G | -5.99
107 | U14G U21G C40A G48C U106A | -5.19
108 | A100U A111G | 0.222
109 | A103G C115U U129G U133A | -5.83
110 | G17U G19U G69U A84U G93A | -4.27
111 | C3G G48C U87G U130C | -1.16
112 | C73U U81A C98A G113A G117U U131G | -5.03
113 | C94U G107A | -4.87
114 | G60A C88G | -1.54
115 | G36U C40A | -3.53
116 | G48A C62A | -2.76
117 | G63C U92A | -4.04
118 | C97A C114U | -5.03
119 | C20U A26U U32C G69U | -3.17
120 | U59C C86U | -1.17

Row | Variant | polymerase ribozyme fitness (log ratio)
121 | C8G U9G C22G | -3.24
122 | A6U C88U G128A | -2.51
123 | G36U C40U A43C A46U G48C | -5.24
124 | C15U G60C A91U U129A | -4.69
125 | A43C U78A C82A | -3.68
126 | C12G C62U U116A | -2.68
127 | C15G G47U | -3.95
128 | C72U C79G G113A | -4.23
129 | C8A C86G C102U C104U G110A | -4.28
130 | G48U G71C | -1.77
131 | G69U C70U | -0.561
132 | A66G C82U C88G C124U | -0.202
133 | G35A C40G C98U C123G | -0.89
134 | C15U C53G C64A C104A C124U | -6.1
135 | G71A U116A | -3.85
136 | G57C A90G G113U C115A | -5.11
137 | U54G C62G | -5.55
138 | C40G G71A U125A | -2.35
139 | U59A C70U | -0.265
140 | C12U G47U C73A C86G G122A | -0.298
141 | U129A G135C | -0.497
142 | G63U G113A G128U | -4.06
143 | C22U A26U C53U G69C A119G | -6.14
144 | U9A G39C C99U | -2.83

Row | Variant | polymerase ribozyme fitness (log ratio)
145 | A16U C72A | -1.32
146 | C13U C49U G57A C82G U106A | -0.895
147 | G39A G113C | -2.69
148 | C12U A29C U131G | -2.88
149 | G10U C11U | 0.0495
150 | G60C C123A | -0.064
151 | G63U G110A | -1.81
152 | C8U U125A U130G | -0.351
153 | A26U U78C | -2.92
154 | C40A G63U | -3.37
155 | C49G C115G G135U | -3.4
156 | C8G A27U C53U A111C C114G | -6.88
157 | C80U C101U G128A | -2.13
158 | G42A C73A C104U G128A | -3.49
159 | A46C G57C | -0.329
160 | A6C C8G C72A | 0.431
161 | C49A A75U C85G | -1.4
162 | U129G U130A | -2.04
163 | C40U U96G C115G A118U G122U | -3.71
164 | C64U C94A | -0.615
165 | A5C G60C | -0.361
166 | C40G C53G G61C C104A G113A | -4.09
167 | A5G A6C C11G C73A G93C | -1.55

Reference: the RNAGym collection of RNA variant scans (doi:10.1073/pnas.2313332121)
